Among the data in publication PMC10636207 are binding values, retold here.

In this series the target is T1, DcuR-His6 (Escherichia coli O157:H7 EDL933?) (UniProt P0AD02).
T1 sequence: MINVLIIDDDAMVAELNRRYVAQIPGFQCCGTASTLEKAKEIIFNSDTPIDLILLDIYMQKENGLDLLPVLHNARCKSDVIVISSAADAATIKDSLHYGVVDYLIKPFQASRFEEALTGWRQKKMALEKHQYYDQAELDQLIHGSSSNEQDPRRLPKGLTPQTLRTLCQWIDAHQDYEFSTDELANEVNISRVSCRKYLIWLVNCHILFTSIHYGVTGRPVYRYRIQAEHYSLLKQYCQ
As to the kind of experiment: EMSA.

On to “CATTAGCCATTGGAAACTCACGTAATCATTAATTATGAATATTCCATTAAATAGTACTGTACAACAGCTTCCTTTCTACTCTATTCTTAGACGATGTAAGTTCACCATATTTTTTCTCATTGTTCAACCACCAGGATGAATAAAATTTAAAAATGTTATCCTCATATAAAATAAAACTTCTCAATGGTGCGATGCG (double strand) [PLEE4]”, for which the binding result is on record as “no binding”.

In the case of “AGATTCATCTGCAGGCTCTGAAGTAAGTATACGTGTGAATATTATTGCTTGAAAAAGCGTATTGGATAATATATACAGTATATGTACTTTATGTACATTGCAACTATTTAAATAATATAATAGTTGCCTATGGGATAATTTGGTTATTTATAACCAGGTAAATGTCTAAATTAGACAAAAGGAGAAAGATCAATGGAAGCAGCAAATTTAAGTCCTTCTGGTGCAGTAATG (double strand) [PLEE2/3]”, the binding result is “no binding”.
